Reference: US20190321478A1 (IMMATICS BIOTECHNOLOGIES, published 2019)
Blank lines part the entries; values can stand above or below the binder they belong to.

Target: HLA-A*02-presented MAGEA1-003 (on target cells) (human)
Experiment: cell-based or functional assay

EC50 of IFNγ release, T2 cells loaded with titrated MAGEA1-003 peptide: 6 nM
B1: TCR R26P1A9 (TCR, V domains shown)
V domain 1: SQQGEEDPQALSIQEGENATMNCSYKTSINNLQWYRQNSGRGLVHLILIRSNEREKHSGRLRVTLDTSKKSSSLLITASRAADTASYFCLIGASGSRLTFGEGTQLTVNP
V domain 2: DAGVIQSPRHEVTEMGQEVTLRCKPISGHDYLFWYRQTMMRGLELLIYFNNNVPIDDSGMPEDRFSAKMPNASFSTLKIQPSEPRDSAVYFCASSYFGWNEKLFFGSGTQLSVLE

EC50 of IFNγ release, T2 cells loaded with titrated MAGEA1-003 peptide: 100 nM
B2: TCR R26P2A6 (TCR, V domains shown)
V domain 1: QKEVEQDPGPLSVPEGAIVSLNCTYSNSAFQYFMWYRQYSRKGPELLMYTYSSGNKEDGRFTAQVDKSSKYISLFIRDSQPSDSATYLCAMSDVSGGYNKLIFGAGTRLAVHP
V domain 2: EAQVTQNPRYLITVTGKKLTVTCSQNMNHEYMSWYRQDPGLGLRQIYYSMNVEVTDKGDVPEGYKVSRKEKRNFPLILESPSPNQTSLYFCASTTPDGTDEQFFGPGTRLTVLE

EC50 of IFNγ release, T2 cells loaded with titrated MAGEA1-003 peptide: 26 nM
B3: TCR R37P1H1 (TCR, V domains shown)
V domain 1: AQTVTQSQPEMSVQEAETVTLSCTYDTSESNYYLFWYKQPPSRQMILVIRQEAYKQQNATENRFSVNFQKAAKSFSLKISDSQLGDTAMYFCAFGYSGGGADGLTFGKGTHLIIQP
V domain 2: DAGVTQSPTHLIKTRGQQVTLRCSPKSGHDTVSWYQQALGQGPQFIFQYYEEEERQRGNFPDRFSGHQFPNYSSELNVNALLLGDSALYLCASSNEGQGWEAEAFFGQGTRLTVVE

More lines, now with the values behind:

B4: TCR R42P3A9 (TCR, V domains shown)
V domain 1: GIQVEQSPPDLILQEGANSTLRCNFSDSVNNLQWFHQNPWGQLINLFYIPSGTKQNGRLSATTVATERYSLLYISSSQTTDSGVYFCAVHNFNKFYFGSGTKLNVKP
V domain 2: AAGVIQSPRHLIKEKRETATLKCYPIPRHDTVYWYQQGPGQDPQFLISFYEKMQSDKGSIPDRFSAQQFSDYHSELNMSSLELGDSALYFCASSLLGQGYNEQFFGPGTRLTVLE
EC50 of IFNγ release, T2 cells loaded with titrated MAGEA1-003 peptide: 823 nM

B5: TCR R59P2E7 (TCR, V domains shown)
V domain 1: KQEVTQIPAALSVPEGENLVLNCSFTDSAIYNLQWFRQDPGKGLTSLLLIQSSQREQTSGRLNASLDKSSGRSTLYIAASQPGDSATYLCAVNSDYKLSFGAGTTVTVRA
V domain 2: AAGVIQSPRHLIKEKRETATLKCYPIPRHDTVYWYQQGPGQDPQFLISFYEKMQSDKGSIPDRFSAQQFSDYHSELNMSSLELGDSALYFCASSLGLGTGDYGYTFGSGTRLTVVE
EC50 of IFNγ release, T2 cells loaded with titrated MAGEA1-003 peptide: 386 nM
